Data from patent publication US20230250154A1 (CYTONICS, published 2023).

Key:
Test in all cases: cell-based or functional assay
ADAMTS4 = target: T1, ADAMTS4 (human, UniProt O75173 213-685, limits assumed)
T1 sequence (looked up): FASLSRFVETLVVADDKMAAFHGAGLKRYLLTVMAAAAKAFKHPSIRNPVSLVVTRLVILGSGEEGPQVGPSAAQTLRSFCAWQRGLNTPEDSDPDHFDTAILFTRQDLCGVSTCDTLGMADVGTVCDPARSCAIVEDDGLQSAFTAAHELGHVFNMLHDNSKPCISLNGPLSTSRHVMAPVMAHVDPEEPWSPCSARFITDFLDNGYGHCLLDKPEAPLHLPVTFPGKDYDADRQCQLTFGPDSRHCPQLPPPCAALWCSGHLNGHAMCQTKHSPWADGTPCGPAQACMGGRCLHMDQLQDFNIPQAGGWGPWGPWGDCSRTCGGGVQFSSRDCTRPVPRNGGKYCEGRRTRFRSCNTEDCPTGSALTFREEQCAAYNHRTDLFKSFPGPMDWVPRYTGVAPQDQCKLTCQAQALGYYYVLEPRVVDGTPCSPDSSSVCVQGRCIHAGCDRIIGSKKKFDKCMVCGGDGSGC

MMP2 = target: T2, MMP2 (human, UniProt P08253 110-660, limits assumed)
T2 sequence (looked up): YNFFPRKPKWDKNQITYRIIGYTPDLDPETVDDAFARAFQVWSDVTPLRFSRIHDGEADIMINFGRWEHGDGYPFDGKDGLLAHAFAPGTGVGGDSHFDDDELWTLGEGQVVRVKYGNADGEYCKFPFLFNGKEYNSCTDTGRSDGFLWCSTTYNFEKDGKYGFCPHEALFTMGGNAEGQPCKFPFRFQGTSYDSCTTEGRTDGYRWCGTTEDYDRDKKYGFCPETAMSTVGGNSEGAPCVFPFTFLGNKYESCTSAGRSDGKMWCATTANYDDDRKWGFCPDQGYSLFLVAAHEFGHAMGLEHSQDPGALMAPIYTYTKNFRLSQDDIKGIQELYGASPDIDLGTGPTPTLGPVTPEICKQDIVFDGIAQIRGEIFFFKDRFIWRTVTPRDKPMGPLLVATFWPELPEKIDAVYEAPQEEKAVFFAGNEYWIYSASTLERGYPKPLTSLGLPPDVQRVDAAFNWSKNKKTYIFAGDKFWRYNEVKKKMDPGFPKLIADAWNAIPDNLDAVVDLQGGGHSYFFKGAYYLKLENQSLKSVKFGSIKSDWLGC

ADAMTS5 = target: T3, ADAMTS5 (human, UniProt Q9UNA0 262-622, limits assumed)
T3 sequence (looked up): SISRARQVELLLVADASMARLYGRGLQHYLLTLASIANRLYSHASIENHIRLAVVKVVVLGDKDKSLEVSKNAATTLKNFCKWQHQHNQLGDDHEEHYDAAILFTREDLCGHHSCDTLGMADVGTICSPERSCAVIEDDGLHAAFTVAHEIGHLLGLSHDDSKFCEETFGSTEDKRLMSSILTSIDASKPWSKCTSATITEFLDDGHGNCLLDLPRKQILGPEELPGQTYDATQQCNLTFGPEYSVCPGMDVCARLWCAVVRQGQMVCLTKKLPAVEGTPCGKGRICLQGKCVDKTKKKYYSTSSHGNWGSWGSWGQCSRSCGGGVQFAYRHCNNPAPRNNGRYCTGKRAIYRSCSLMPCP

MMP13 = MMP13 (human, UniProt P45452 104-471, limits assumed)
MMP1 = target: T4, MMP1 (human, UniProt P03956 100-469, limits assumed)
T4 sequence (looked up): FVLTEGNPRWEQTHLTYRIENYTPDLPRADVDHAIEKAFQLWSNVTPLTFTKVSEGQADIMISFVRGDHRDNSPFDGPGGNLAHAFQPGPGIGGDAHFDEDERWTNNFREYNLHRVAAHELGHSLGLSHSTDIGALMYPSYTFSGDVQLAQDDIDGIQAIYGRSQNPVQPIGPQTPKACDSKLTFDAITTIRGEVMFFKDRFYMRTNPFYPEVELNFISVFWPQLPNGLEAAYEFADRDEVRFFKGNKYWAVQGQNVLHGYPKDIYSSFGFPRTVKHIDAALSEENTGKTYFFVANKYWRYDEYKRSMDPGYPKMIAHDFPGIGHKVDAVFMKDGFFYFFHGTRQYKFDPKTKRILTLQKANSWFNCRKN

MMP7 = target: T5, MMP7 (UniProt P09237 95-267, limits assumed)
T5 sequence (looked up): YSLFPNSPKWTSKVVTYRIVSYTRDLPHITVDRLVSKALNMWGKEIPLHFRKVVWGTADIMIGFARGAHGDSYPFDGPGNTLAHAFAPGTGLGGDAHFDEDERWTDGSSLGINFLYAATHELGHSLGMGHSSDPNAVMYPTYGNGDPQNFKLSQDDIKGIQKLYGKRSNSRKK

MMP9 = MMP9 (human, UniProt P14780 107-707, limits assumed)
Sequence of MMP9 (P14780 107-707 limits assumed): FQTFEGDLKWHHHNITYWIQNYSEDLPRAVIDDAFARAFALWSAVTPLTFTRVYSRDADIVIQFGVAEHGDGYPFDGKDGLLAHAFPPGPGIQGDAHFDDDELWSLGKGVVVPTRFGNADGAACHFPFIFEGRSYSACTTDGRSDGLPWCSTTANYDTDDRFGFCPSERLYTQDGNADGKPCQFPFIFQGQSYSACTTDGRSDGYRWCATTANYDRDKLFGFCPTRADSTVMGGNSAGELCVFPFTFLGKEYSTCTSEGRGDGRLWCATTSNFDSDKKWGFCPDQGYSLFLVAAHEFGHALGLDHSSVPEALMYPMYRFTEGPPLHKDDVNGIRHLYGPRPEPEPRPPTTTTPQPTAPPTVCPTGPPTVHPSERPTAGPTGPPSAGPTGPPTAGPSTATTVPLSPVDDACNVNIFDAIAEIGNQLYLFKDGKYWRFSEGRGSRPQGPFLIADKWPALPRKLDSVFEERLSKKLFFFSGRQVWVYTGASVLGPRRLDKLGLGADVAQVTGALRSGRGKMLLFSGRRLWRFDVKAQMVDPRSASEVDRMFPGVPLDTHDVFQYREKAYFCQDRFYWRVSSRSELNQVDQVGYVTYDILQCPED

MMP3 = MMP3 (human, UniProt P08254 100-477, limits assumed)
Sequence of MMP3 (P08254 100-477 limits assumed): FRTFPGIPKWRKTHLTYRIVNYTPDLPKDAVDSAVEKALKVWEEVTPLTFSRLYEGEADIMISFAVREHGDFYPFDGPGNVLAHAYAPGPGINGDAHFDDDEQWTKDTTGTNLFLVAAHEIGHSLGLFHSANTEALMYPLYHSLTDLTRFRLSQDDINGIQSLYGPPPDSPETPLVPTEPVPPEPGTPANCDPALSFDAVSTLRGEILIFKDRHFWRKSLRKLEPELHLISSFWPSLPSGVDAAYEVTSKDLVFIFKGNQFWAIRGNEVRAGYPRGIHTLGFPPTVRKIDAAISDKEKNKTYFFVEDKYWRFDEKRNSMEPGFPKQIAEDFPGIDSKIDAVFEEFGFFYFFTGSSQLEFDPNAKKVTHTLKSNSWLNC

MMP8 = MMP8 (human, UniProt P22894 101-467, limits assumed)
Sequence of MMP8 (P22894 101-467 limits assumed): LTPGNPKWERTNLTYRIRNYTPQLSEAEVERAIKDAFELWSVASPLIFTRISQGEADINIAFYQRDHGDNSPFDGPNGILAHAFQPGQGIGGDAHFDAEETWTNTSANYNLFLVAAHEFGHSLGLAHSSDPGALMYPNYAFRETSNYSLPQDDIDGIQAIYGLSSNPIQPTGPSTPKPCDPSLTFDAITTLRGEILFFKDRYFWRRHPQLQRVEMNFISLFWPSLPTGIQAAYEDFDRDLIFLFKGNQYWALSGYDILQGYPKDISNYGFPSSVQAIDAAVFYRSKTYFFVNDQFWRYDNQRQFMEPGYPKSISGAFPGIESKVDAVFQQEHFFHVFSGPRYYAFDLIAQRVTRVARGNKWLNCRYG

Elastase = target: Elastase
Cathepsin G = target: T6, Cathepsin G (UniProt P08311 21-244)
T6 sequence (looked up): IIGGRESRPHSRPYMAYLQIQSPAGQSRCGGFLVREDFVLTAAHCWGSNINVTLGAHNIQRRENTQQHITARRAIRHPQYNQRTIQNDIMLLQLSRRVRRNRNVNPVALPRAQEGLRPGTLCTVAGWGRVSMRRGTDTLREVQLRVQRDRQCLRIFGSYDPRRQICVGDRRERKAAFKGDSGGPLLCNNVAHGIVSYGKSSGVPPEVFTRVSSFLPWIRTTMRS

B1: Variant A2M, bait region SEQ ID NO 21 (other)
chain: SVSGKPQYMVLVPSLLHTETTEKGCVLLSYLNETVTVSASLESVRGNRSLFTDLEAENDVLHCVAFAVPKSSSNEEVMFLTVQVKGPTQEFKKRTTVMVKNEDSLVFVQTDKSIYKPGQTVKFRVVSMDENFHPLNELIPLVYIQDPKGNRIAQWQSFQLEGGLKQFSFPLSSEPFQGSYKVVVQKKSGGRTEHPFTVEEFVLPKFEVQVTVPKIITILEEEMNVSVCGLYTYGKPVPGHVTVSICRKYSDASDCHGEDSQAFCEKFSGQLNSHGCFYQQVKTKVFQLKRKEYEMKLHTEAQIQEEGTVVELTGRQSSEITRTITKLSFVKVDSHFRQGIPFFGQVRLVDGKGVPIPNKVIFIRGNEANYYSNATTDEHGLVQFSINTTNVMGTSLTVRVNYKDRSPCYGYQWVSEEHEEAHHTAYLVFSPSKSFVHLEPMSHELPCGHTQTVQAHYILNGGTLLGLKKLSFYYLIMAKGGIVRTGTHGLLVKQEDMKGHFSISIPVKSDIAPVARLLIYAVLPTGDVIGDSAKYDVENCLANKVDLSFSPSQSLPASHAHLRVTAAPQSVCALRAVDQSVLLMKPDAELSASSVYNLLPEKDLTGFPGPLNDQDDEDCINRHNVYINGITYTPVSSTNEKDMYSFLEDMGLKAFTNSKIRKPKMCPQLEHGPTEGEARGSPRYLTAIPENFYGVSEDLVVQISELEGRGSPHTKLRKYFPETWIWDLVVVNSAGVAEVGVTVPDTITEWKAGAFCLSEDAGLGISSTASLRAFQPFFVELTMPYSVIRGEAFTLKATVLNYLPKCIRVSVQLEASPAFLAVPVEKEQAPHCICANGRQTVSWAVTPKSLGNVNFTVSAEALESQELCGTEVPSVPEHGRKDTVIKPLLVEPEGLEKETTFNSLLCPSGGEVSEELSLKLPPNVVEESARASVSVLGDILGSAMQNTQNLLQMPYGCGEQNMVLFAPNIYVLDYLNETQQLTPEIKSKAIGYLNTGYQRQLNYKHYDGSYSTFGERYGRNQGNTWLTAFVLKTFAQARAYIFIDEAHITQALIWLSQRQKDNGCFRSSGSLLNNAIKGGVEDEVTLSAYITIALLEIPLTVTHPVVRNALFCLESAWKTAQEGDHGSHVYTKALLAYAFALAGNQDKRKEVLKSLNEEAVKKDNSVHWERPQKPKAPVGHFYEPQAPSAEVEMTSYVLLAYLTAQPAPTSEDLTSATNIVKWITKQQNAQGGFSSTQDTVVALHALSKYGAATFTRTGKAAQVTIQSSGTFSSKFQVDNNNRLLLQQVSLPELPGEYSMKVTGEGCVYLQTSLKYNILPEKEEFPFALGVQTLPQTCDEPKAHTSFQISLSVSYTGSRSASNMAIVDVKMVSGFIPLKPTVKMLERSNHVSRTEVSSNHVLIYLDKVSNQTLSLFFTVLQDVPVRDLKPAIVKVYDYYETDEFAIAEYNAPCSKDLGNADYKDDDDKGASHHHHHH
ADAMTS4
  Protease Inhibition (% of WT): 68 % of WT
MMP2
  Protease Inhibition (% of WT): 66 % of WT
ADAMTS5
  Protease Inhibition (% of WT): 217 % of WT
MMP13
  Protease Inhibition (% of WT): 46 % of WT
MMP1
  Protease Inhibition (% of WT): 84 % of WT
MMP7
  Protease Inhibition (% of WT): 94 % of WT
MMP9
  Protease Inhibition (% of WT): 45 % of WT
MMP3
  Protease Inhibition (% of WT): 26 % of WT
MMP8
  Protease Inhibition (% of WT): 39 % of WT
Elastase
  Protease Inhibition (% of WT): 59 % of WT
Cathepsin G
  Protease Inhibition (% of WT): 58 % of WT
